# A protein production outcome set (Wang et al. 2014)
# Test: label from the status in PepcDB records
row,Sequence,protein production
1,MLTLVLASAQSPDLRGRGPDMEPRSSVAKSGVALGVLLLIGLPVAAQNSKVKTNYLSHIEPCNGVGATPLDVRIDACTAFIEASQGTTAALAIAYNNRGNAYTAKGDYDKAIRDFDQSIALKPTYAKAFNNRGVAYLRKGEYELAIEAFDDAIKLDPDYVAAFVNRAGAYLKKNDHQRAAHDYDEAIRLQPDSQAARSGRCWTRAVLGAWQAALEDCDRALQSGSTSAAVYDSRGLIHLKMGEFGAAIADYNSALRAAPELASALFGRGLAKLKQGDAIGGDSDISAAKTIQGNIGDEFAHYGVGRD,failed
2,TQVADNEYLVQGRMLIDEFNEVFETDLHMSDVDTMAGYLITALGTIPDEGEKPSFEVGNIKLTAEEMEGTRLLVLRVHFYDEETVDEEPEENRRFFRKEMEDDEPRR,not failed
3,MAKMIILPKLVQKSVVSPKQTSQERVVTSTFSPPKPAGENISVQRRCELSEYHASGHVISHLPPPFAVAKPTPTTSLLPQPVRLINADAEDASCSSTPSWRIKKSLTCVCFNRKRAYERICSNLTPLQEERLKRLRKRMKNYYDASRPDHQDALRALWSATYPDEKLQDLISDQWKNMGWQGKDPSTDFRGAGFISLENLLFFAKTFSTSFQRLLNKQGGKRAAWEYPFAVAGVNITFMIMQMLDLEASKPRSFIRLVFLQMLSESEWAFDLLYCVAFVVMDKQWLDKNATYMEFNDVLRCTRGQLERELMMDDVFRIEDMPSFSLLS,failed
4,MTQDNASGDQVSKQHKAFLRKLYLAHLMDDARHNLLSLGKLTGMPRRTLQDAIASFADIGIEVEFVQDGERHNAGYYRIRTWGPISSAWMDTHVDEVKSLLGVDDAVGQATAGNGA,not failed
5,ALTGHTVLVGWDGEASERIVELLGQDTSTSRAGLVICDSIITENPLPGRASFIKGDSLDSPAVLSRAGVVGAQRILVHTQSDSLTLAIVLTLKSLGPTGHVVAHFNNSERAALARTYAPELECTSNMAIEMLVRSAQDPGSSSVIT,failed
6,MAKKPAAHATKPKPWTEMATHLVDVAMGRKPADLVIRNGRWVNVHSGEIIAGTDIAIAGGRFAYCGPNASHAIGQGTKVVDAGGRYLVPGLCDAHMHVESGMVTVTEFCRAVIPHGTTSMFIDPHEIANVLGLPGVRLMHDEAVAMPINVHVQMPSCVPSAPGLEHAGAELTVADVAEAMTWENIIGLGEVMNFPGVAANDPVMSGEIAATVRAGKTVGGHYASRDLGLPFHGYVAGGPEDDHEGTRAEDAIARVRQGMKAMLRLGSAWYDVASQIKAVTEGGIDPRNFILCTDDSHSGTLVHEGHMDRVVRHAIQQGLKPVTAIQMATINTAQHFRLEREIGSIAPGRLADLLIVSDLAAMTIDEVYARGVRLAKGGKLDIDIPAYDYPKTAKNTVKLGKKLRAGDFDITAPKGANEVRVRVIGVIENQAPTRALEADLPVEDGLVAMDRRNDVCQIALVERHRGTGGVTNAFVSGFGYMGDCAMASSVAHDAHHIICVGTNKQDMALAVNRLGQVGGGVVLFSKGKELALVEMPIAGLMSDERAEIVAAKAEKLTEAMRKMGCSLNNAYMQHSLLALVVIPELRISDVGLIDVTTFQKVDLFV,failed
7,MHLSLMISRHYINRMKLSLMHISILAGIPEEFKVNIYIGWLFKLIPLIMGLICIALGGFVLESSGQSEYFVAGHVLISLAAICLALFTTAFIIISQLTRGVNTFYNTLFPIIGYAGSIITMIWGWALLAGNDVMADEFVAGHVIFGVGMIAACVSTVAASSGHFLLIPKNAAGSKSDGTPVQAYSSLIGNCLIAVPVLLTLLGFIWSITLLRSADITPHYVAGHVLLGLTAICACLIGLVATIVHQTRNTFSTKEHWLWCYWVIFLGSITVLQGIYVLVSSDASARLAPGIILICLGMICYSIFSKVWLLALVWRRTCSLANRIPMIPVFTCLFCLFLASFLAEMAQTDMGYFIPSRVLVGLGAVCFTLFSIVSILEAGSAKK,failed
8,MESITEWDLGSLRTYYSVEPSENFQEDEFLDFNLVPCLQTELWKAQTRIKELEAEKFKSEETIRCLIRNQRNEKEETTNPFVDYLKEKLSKEREEKKRVKAENSRLKKKILDMESSVNRLRRERDTMEKVCEELVTRIDELKVNTRRVWDETEEERQMLQMAEMWREERVRVKFMDAKLALQEKYEEMNLFVVELEKCLETAREVGGIEEKRLRHGEGLIKMAKSMEVVDSKIDFERFEFVSDEGNV,failed
9,MGHHHHHHSHMAKTYDYLFKLLLIGDSGVGKTCVLFRFSEDAFNSTFISTIGIDFKIRTIELDGKRIKLQIWDTAGQERFRTITTAYYRGAMGIMLVYDITNEKSFDNIRNWIRNIEEHASADVEKMILGNKCDVNDKRQVSKERGEKLALDYGIKFMETSAKANINVENAFFTLARDIKAKMDKKLEGNSPQGSNQGVKITPDQQKRSSFFRCVLL,not failed
10,SAQEKMELDLELPPGTGGSPAEGGGSGGGGGLRRSNSAPLIHGLSDTSPVFQAEAPSARRNSTTFPSRHGLLLPASPVRMHSSRLHQIKQEEGMDLINRETVHEREVQTAMQISHSWEESFSLSDNDVEKSASPKRIDFIPVSPAPSPTRGIGKQCFSPSLQSFVSSNGLPPSPIPSPTTRFTTRRSQSPINCIRPSVLGPLKRKCEMETEYQPKRFFQGITNMLSSDVAQLSDPGVCVSSDTLDGNSSSAGSSCNSPAKVSTTTDSPVSPAQAASPFIPLDELSSK,not failed
11,MLRSCARRLRTLGALCQPPPVGRRLPGSEPQPALRSFSSEEVILKDYSVPNPSWNKDLRLLFDQFMKKCEDGSWKRLPSYKRTPTERIQDFKTHFLDPKLMKEEQVSQAQLFTRSFDDGLGFEYVMFYNDVEKRMVCLFQGVPYLEGPPGLIHGGAIATMIDATVGMCAMMAGGIVMTANLNISCKRPIPLCSVVRINSQLDKVEGKKFFVSSNVQSVDEKTLYSEATSLLIKLNPAKSLT,failed
12,MSLSEIKRKFDAVSGKYDEQRRKFIPCFDDFYGVSVSIASVDTENPDILDLGAGTGLLSAFLMEKYPEATFTLVDMSEKMLEIAKNRFRGNLKVKYIEADYSKYDFEEKYDMVVSALSIHHLEDEDKKELYKRSYSILKESGIFINADLVHGETAFIENLNKTIWRQYVENSGLTEEEIAAGYERSKLDKDIEMNQQLNWLKEAGFRDVSCIYKYYQFAVMFGRKTEGHHHHHH,not failed
13,MRILSGMRPTGKLHIGHLVGALENWVKLQEEGNECFYFVADWHALTTHYDDVSKLKEYTRDLVRGFLACGIDPEKSVIFVQSGVKEHAELALLFSMIVSVSRLERVPTYKEIKSELNYKDLSTAGFLIYPVLQAADILIYKAEGVPVGEDQVYHIELTREIARRFNYLYDEVFPEPEAILSRVPKLPGTDGRKMSKSYGNIINLEISEKELEQTILRMMTDPARVRRSDPGNPENCPVWKYHQAFDISEEESKWVWEGCTTASIGCVDCKKLLLKNMKRKLAPIWENFRKIDEDPHYVDDVIMEGTKKAREVAAKTMEEVRRAMNLMF,not failed
14,MEEKNGSSEVEIGEKDETKKQSKDLEFLSCMMQPKTADSDPHYIGIRRILLHRKADSGVISRRYDWRCNGKGYVAYRNFISKPRKWENLRTPSLLSSPGNSGRWLPSPSPLSHQFEAESFTSSRDLRSVNQVSSRRASFSSSLSDGDNSYRRGGVEHAYSFVGMHCIFDQCKSSVTVLKFGHMSSDILAYGASDGSLTVCSLLEEPSVLKQLTGHSKDVTDFDFSSNNQYIASSSLDKTIRVWELSRGVCIRVIYGISPQYCIRFHPVNNNFLSAGNANKELTVFNFSTGRIIKKLLFEDEVTSMDHDHTGQIIFCGDGQGTVYSVSMDSHTGSLSRSHRHRTNHKSPVTTVKYRSFSLLASGPVLLTCTQDGNLSFFSVALQIKGYLTLRCSLKLAPRIHRIQASFCPLLSLEKGEYIVAGSEDSNVYFYDLTKPKHTCVNKLQGHRFPVMCVAWNHGENLLASSDFYGVVIVWKRAKTSS,failed
